T1: human xylosyltransferase 1 (XT1), residues 232-959 (human, UniProt Q86Y38 232-959, N-linked glycosylation at N777)
T1 construct: human xylosyltransferase 1 (XT1), residues 232-959, amplified from a Dharmacon cDNA clone; The vector is a modified pCEP-Pu (pCEP-Pu-N-His-TEV, Pulido et al., 2017); also called peptide O-xylosyltransferase; XYLT1; source: FreeStyle 293-F (HEK293-F) cells, transfected, secreted; purified (HisTrap Excel, HiTrap Heparin, Superdex 200); not shown: His-tag (TEV protease-cleavable), N-terminal, kept
T1 sequence (looked up): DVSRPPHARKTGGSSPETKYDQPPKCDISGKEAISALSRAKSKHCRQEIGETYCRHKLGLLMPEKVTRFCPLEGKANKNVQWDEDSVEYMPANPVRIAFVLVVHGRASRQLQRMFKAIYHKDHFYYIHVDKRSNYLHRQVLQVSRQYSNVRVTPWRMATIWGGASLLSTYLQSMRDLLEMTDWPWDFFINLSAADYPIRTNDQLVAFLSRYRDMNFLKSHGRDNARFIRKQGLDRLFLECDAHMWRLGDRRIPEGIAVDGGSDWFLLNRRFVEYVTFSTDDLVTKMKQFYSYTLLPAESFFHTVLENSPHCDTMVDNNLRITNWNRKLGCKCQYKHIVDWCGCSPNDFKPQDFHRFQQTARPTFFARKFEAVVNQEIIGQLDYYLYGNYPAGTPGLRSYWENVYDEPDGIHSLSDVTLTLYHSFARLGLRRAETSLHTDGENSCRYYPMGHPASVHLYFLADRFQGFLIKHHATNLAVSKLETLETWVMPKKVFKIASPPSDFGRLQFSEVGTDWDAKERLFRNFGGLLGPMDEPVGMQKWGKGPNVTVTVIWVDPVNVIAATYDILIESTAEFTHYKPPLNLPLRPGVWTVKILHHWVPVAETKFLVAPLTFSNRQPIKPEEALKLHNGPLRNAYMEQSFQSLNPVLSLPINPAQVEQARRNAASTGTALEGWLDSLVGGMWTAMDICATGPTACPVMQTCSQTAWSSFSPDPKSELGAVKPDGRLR

B1: Peptide 8 (syndecan 1-derived acceptor peptide) (peptide)
peptide: PAAEGSGEQDFT
notes: syndecan 1 around the acceptor serine S206; position 0 is the acceptor serine; source: synthetic peptide (Genscript)
B2: Peptide 1 (bikunin-derived acceptor peptide, wild-type sequence) (peptide)
peptide: QEEEGSGGGQGG
notes: bikunin (part of the AMBP precursor) around the acceptor serine S215; position 0 is the acceptor serine; also called active peptide 1; bikunin-derived peptide 1; source: synthetic peptide (Genscript)
B3: Peptide 2 (inactive bikunin-derived peptide, acceptor serine replaced by alanine) (peptide)
peptide: QEEEGAGGGQGG
notes: bikunin (part of the AMBP precursor) around the acceptor site S215, with the acceptor serine changed to alanine; source: synthetic peptide (Genscript)

The target of this assay is T1, human xylosyltransferase 1 (XT1), …. In words: crystal structure; XT1 crystals (hanging drop, Morpheus condition, pH 7.5) soaked with peptide (0.5 or 0.7 mM); for peptide 2 together with UDP-xylose (3.5 mM), giving a ternary complex. Particulars: both partners purified.
Consider B1, for which the binding result is reported as “binds”.
To B2 belongs “binds”; to B3, “binds”.
